B1: CV3-25 (antibody)
chain 1: QVQLVESGAEVKKPGESLKISCKGSGYTFTRYWIGWVRQMPGKGLEWMGIIYPGDSDTRYSPSFQGHVTISADKSISTAYLQWNSLKASDTAMYYCARLPQYCSNGVCQRWFDPWGQGTLVTVSS
chain 2: EIVLTQSPSSVSASVGDRVTITCRASQGISSWLAWYQQKPGKAPKLLIYAASSLQSGVPSRFSGSGSGTDFTLTISSLQPEDFATYYCQQGNSFPYTFGQGTNLEIK
B2: hr2.020 (antibody, V domains shown)
VH: EVQLVQSGAEVKKPGESLKISCKGSGYRFASHWIGWVRQMPGKGLQWMGIIYPGDSDTKYSPSFQGQVTISADKSINTVYLHWTSLKASDTAVYYCARRPPHLDGGDSPIRFDHWGQGTLVTVSS
VL: QSVLTQPPSASGTPGQRVTISCSGSRSNIGSNDVYWYQQFPGTAPKLLIYRNNQRPSGVPDRFSGSKSGTSASLAISGLRSEDEADYYCATWDDRLTGVFGGGTKLTVV

Target: JL14 HR2 peptide (JL14)
Experiment: peptide ELISA

| Binder | EC50 |
| --- | --- |
| B1 | 0.0176 µg/mL |
| B2 | 0.0351 µg/mL |

From US20250382354A1
